# Test results published in the supplement of paper PMC5998384.
# Key:
# HeLa Kyoto [1] = assay: melting temperature (median over replicates), in situ; higher = more thermally stable
# HeLa Kyoto [2] = assay: solubility in G1/S (NP-40 vs SDS abundance) (log2 ratio); higher = more soluble; conditions: cell cycle stage: G1/S
# HeLa Kyoto [3] = assay: solubility change mitosis vs G1/S (difference of NP-40 vs SDS log2 ratios) (log2 ratio difference); higher = more soluble in mitosis
# HeLa Kyoto [4] = assay: thermal stability score vs G1/S (z-score of summed log2 fold changes over temperatures); higher = more thermally stable than in G1/S
# [5] = cell cycle stage: early G1 (4.5 h after nocodazole release)
# 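Throughout, for melting temperature (median over replicates), in situ: HeLa Kyoto cells synchronized by double thymidine or nocodazole block, proteins quantified by TMT10plex mass spectrometry, three independent biological replicates.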
# 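Throughout, for solubility change mitosis vs G1/S (difference of NP-40 vs SDS log2 ratios): synchronized HeLa Kyoto cells (double thymidine block for G1/S, nocodazole release for mitosis), protein amounts in NP-40 versus SDS lysates quantified by mass spectrometry, three biological replicates.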
# 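Throughout, for solubility in G1/S (NP-40 vs SDS abundance): HeLa Kyoto cells arrested at G1/S by double thymidine block, proteins quantified by TMT10plex mass spectrometry in mild NP-40 versus SDS extracts, three biological replicates.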
# 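Throughout, for thermal stability score vs G1/S (z-score of summed log2 fold changes over temperatures): synchronized HeLa Kyoto cells, proteins quantified by TMT10plex mass spectrometry, three biological replicates, mitosis taken 0.5 h after nocodazole release, G1/S directly after double thymidine block.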
Sequence,melting temperature (HeLa Kyoto [1]; cell cycle stage: G1/S),melting temperature (HeLa Kyoto [1]; cell cycle stage: mitosis),solubility in G1/S (log2) (HeLa Kyoto [2]),solubility change mitosis (log2) (HeLa Kyoto [3]),thermal stability score (HeLa Kyoto [4]; [5]),thermal stability score (HeLa Kyoto [4]; cell cycle stage: mitosis)
MVAACRSVAGLLPRRRRCFPARAPLLRVALCLLCWTPAAVRAVPELGLWLETVNDKSGPLIFRKTMFNSTDIKLSVKSFHCSGPVKFTIVWHLKYHTCHNEHSNLEELFQKHKLSVDEDFCHYLKNDNCWTTKNENLDCNSDSQVFPSLNNKELINIRNVSNQERSMDVVARTQKDGFHIFIVSIKTENTDASWNLNVSLSMIGPHGYISASDWPLMIFYMVMCIVYILYGILWLTWSACYWKDILRIQFWIAAVIFLGMLEKAVFYSEYQNISNTGLSTQGLLIFAELISAIKRTLARLLVIIVSLGYGIVKPRLGTVMHRVIGLGLLYLIFAAVEGVMRVIGGSNHLAVVLDDIILAVIDSIFVWFIFISLAQTMKTLRLRKNTVKFSLYRHFKNTLIFAVLASIVFMGWTTKTFRIAKCQSDWMERWVDDAFWSFLFSLILIVIMFLWRPSANNQRYAFMPLIDDSDDEIEEFMVTSENLTEGIKLRASKSVSNGTAKPATSENFDEDLKWVEENIPSSFTDVALPVLVDSDEEIMTRSEMAEKMFSSEKIM [TMEM87B],55.1 °C,54.9 °C,-0.12,-0.177,-3.16,-3.29
MSNSRPRSRRDAGGGAGAAGRDELVSRSLQSAEHCLGVQDFGTAYAHYLLVLSLAPELKHDVKETFQYTLFRWAEELDALSRIQDLLGCYEQALELFPDDEVICNSMGEHLFRMGFRDEAAGYFHKAVKLNPDFSDAKENFYRVANWLVERWHFIMLNDTKRNTIYNAAIQKAVCLGSKSVLDIGAGTGILSMFAKKAGAHSVYACELSKTMYELACDVVAANKMEAGIKLLHTKSLDIEIPKHIPERVSLVVTETVDAGLFGEGIVESLIHAWEHLLLQPKTKGESANCEKYGKVIPASAVIFGMAVECAEIRRHHRVGIKDIAGIHLPTNVKFQSPAYSSVDTEETIEPYTTEKMSRVPGGYLALTECFEIMTVDFNNLQELKSLATKKPDKIGIPVIKEGILDAIMVWFVLQLDDEHSLSTSPSEETCWEQAVYPVQDLADYWIKPGDHVMMEVSCQDCYLRIQSISVLGLECEMDVAKSFTQNKDLLSLGNEAELCSALANLQTSKPDAVEQTCILESTEIALLNNIPYHEGFKMAMSKVLSSLTPEKLYQTMDTHCQNEMSSGTGQSNTVQNILEPFYVLDVSEGFSVLPVIAGTLGQVKPYSSVEKDQHRIALDLISEANHFPKETLEFWLRHVEDESAMLQRPKSDKLWSIIILDVIEPSGLIQQEIMEKAAISRCLLQSGGKIFPQYVLMFGLLVESQTLLEENAVQGTERTLGLNIAPFINQFQVPIRVFLDLSSLPCIPLSKPVELLRLDLMTPYLNTSNREVKVYVCKSGRLTAIPFWYHMYLDEEIRLDTSSEASHWKQAAVVLDNPIQVEMGEELVLSIQHHKSNVSITVKQ [PRMT9],50.8 °C,51.1 °C,-0.21,-0.0806,0.367,0.336
MAGGGGDLSTRRLNECISPVANEMNHLPAHSHDLQRMFTEDQGVDDRLLYDIVFKHFKRNKVEISNAIKKTFPFLEGLRDRDLITNKMFEDSQDSCRNLVPVQRVVYNVLSELEKTFNLPVLEALFSDVNMQEYPDLIHIYKGFENVIHDKLPLQESEEEEREERSGLQLSLEQGTGENSFRSLTWPPSGSPSHAGTTPPENGLSEHPCETEQINAKRKDTTSDKDDSLGSQQTNEQCAQKAEPTESCEQIAVQVNNGDAGREMPCPLPCDEESPEAELHNHGIQINSCSVRLVDIKKEKPFSNSKVECQAQARTHHNQASDIIVISSEDSEGSTDVDEPLEVFISAPRSEPVINNDNPLESNDEKEGQEATCSRPQIVPEPMDFRKLSTFRESFKKRVIGQDHDFSESSEEEAPAEASSGALRSKHGEKAPMTSRSTSTWRIPSRKRRFSSSDFSDLSNGEELQETCSSSLRRGSGSQPQEPENKKCSCVMCFPKGVPRSQEARTESSQASDMMDTMDVENNSTLEKHSGKRRKKRRHRSKVNGLQRGRKKDRPRKHLTLNNKVQKKRWQQRGRKANTRPLKRRRKRGPRIPKDENINFKQSELPVTCGEVKGTLYKERFKQGTSKKCIQSEDKKWFTPREFEIEGDRGASKNWKLSIRCGGYTLKVLMENKFLPEPPSTRKKRILESHNNTLVDPCEEHKKKNPDASVKFSEFLKKCSETWKTIFAKEKGKFEDMAKADKAHYEREMKTYIPPKGEKKKKFKDPNAPKRPPLAFFLFCSEYRPKIKGEHPGLSIDDVVKKLAGMWNNTAAADKQFYEKKAAKLKEKYKKDIAAYRAKGKPNSAKKRVVKAEKSKKKKEEEEDEEDEQEEENEEDDDK [SP100],51.9 °C,51.9 °C,0.0834,0.113,-2.83,-2.43
MAVVPLLLLGGLWSAVGASSLGVVTCGSVVKLLNTRHNVRLHSHDVRYGSGSGQQSVTGVTSVDDSNSYWRIRGKSATVCERGTPIKCGQPIRLTHVNTGRNLHSHHFTSPLSGNQEVSAFGEEGEGDYLDDWTVLCNGPYWVRDGEVRFKHSSTEVLLSVTGEQYGRPISGQKEVHGMAQPSQNNYWKAMEGIFMKPSELLKAEAHHAEL [SDF2],54.3 °C,54.1 °C,0.097,-0.129,4.15,3.09
MGRTSKDKRDVYYRLAKENGWRARSAFKLLQLDKEFQLFQGVTRAVDLCAAPGSWSQVLSQKIGGQGSGHVVAVDLQAMAPLPGVVQIQGDITQLSTAKEIIQHFKGCPADLVVCDGAPDVTGLHDVDEYMQAQLLLAALNIATHVLKPGGCFVAKIFRGRDVTLLYSQLQVFFSSVLCAKPRSSRNSSIEAFAVCQGYDPPEGFIPDLSKPLLDHSYDPDFNQLDGPTRIIVPFVTCGDLSSYDSDRSYPLDLEGGSEYKYTPPTQPPISPPYQEACTLKRKGQLAKEIRPQDCPISRVDTFPQPLAAPQCHTLLAPEMEDNEMSCSP [FTSJ1],51.4 °C,50.5 °C,0.332,0.07,-0.919,-0.299
MTSMASLFSFTSPAVKRLLGWKQGDEEEKWAEKAVDALVKKLKKKKGAMEELEKALSSPGQPSKCVTIPRSLDGRLQVSHRKGLPHVIYCRVWRWPDLQSHHELKPLDICEFPFGSKQKEVCINPYHYKRVESPVLPPVLVPRHNEFNPQHSLLVQFRNLSHNEPHMPQNATFPDSFHQPNNTPFPLSPNSPYPPSPASSTYPNSPASSGPGSPFQLPADTPPPAYMPPDDQMGQDNSQPMDTSNNMIPQIMPSISSRDVQPVAYEEPKHWCSIVYYELNNRVGEAFHASSTSVLVDGFTDPSNNKSRFCLGLLSNVNRNSTIENTRRHIGKGVHLYYVGGEVYAECLSDSSIFVQSRNCNFHHGFHPTTVCKIPSSCSLKIFNNQEFAQLLAQSVNHGFEAVYELTKMCTIRMSFVKGWGAEYHRQDVTSTPCWIEIHLHGPLQWLDKVLTQMGSPLNPISSVS [SMAD5],50.3 °C,50 °C,-0.0752,-0.0922,0.616,0.53
MSLVAYASSDESEPDEAEPEPEEEEAVAPTSGPALGGLFASLPAPKGPALLPPPPQMLAPAFPPPLLLPPPTGDPRLQPPPPLPFGLGGFPPPPGVSPAEAAGVGEGLGLGLPSPRGPGLNLPPPIGGAGPPLGLPKPKKRKEPVKIAAPELHKGDSDSEEDEPTKKKTILQGSSEGTGLSALLPQPKNLTVKETNRLLLPHAFSRKPSDGSPDTKPSRLASKTKTSSLAPVVGTTTTTPSPSAIKAAAKSAALQVTKQITQEEDDSDEEVAPENFFSLPEKAEPPGVEPYPYPIPTVPEELPPGTEPEPAFQDDAANAPLEFKMAAGSSGAPWMPKPGDDYSYNQFSTYGDANAAGAYYQDYYSGGYYPAQDPALVPPQEIAPDASFIDDEAFKRLQGKRNRGREEINFVEIKGDDQLSGAQQWMTKSLTEEKTMKSFSKKKGEQPTGQQRRKHQITYLIHQAKERELELKNTWSENKLSRRQTQAKYGF [PRCC],53.2 °C,53.8 °C,0.46,-0.00665,-2.8,-0.438
MEVMNLMEQPIKVTEWQQTYTYDSGIHSGANTCVPSVSSKGIMEEDEACGRQYTLKKTTTYTQGVPPSQGDLEYQMSTTARAKRVREAMCPGVSGEDSSLLLATQVEGQATNLQRLAEPSQLLKSAIVHLINYQDDAELATRALPELTKLLNDEDPVVVTKAAMIVNQLSKKEASRRALMGSPQLVAAVVRTMQNTSDLDTARCTTSILHNLSHHREGLLAIFKSGGIPALVRMLSSPVESVLFYAITTLHNLLLYQEGAKMAVRLADGLQKMVPLLNKNNPKFLAITTDCLQLLAYGNQESKLIILANGGPQALVQIMRNYSYEKLLWTTSRVLKVLSVCPSNKPAIVEAGGMQALGKHLTSNSPRLVQNCLWTLRNLSDVATKQEGLESVLKILVNQLSVDDVNVLTCATGTLSNLTCNNSKNKTLVTQNSGVEALIHAILRAGDKDDITEPAVCALRHLTSRHPEAEMAQNSVRLNYGIPAIVKLLNQPNQWPLVKATIGLIRNLALCPANHAPLQEAAVIPRLVQLLVKAHQDAQRHVAAGTQQPYTDGVRMEEIVEGCTGALHILARDPMNRMEIFRLNTIPLFVQLLYSSVENIQRVAAGVLCELAQDKEAADAIDAEGASAPLMELLHSRNEGTATYAAAVLFRISEDKNPDYRKRVSVELTNSLFKHDPAAWEAAQSMIPINEPYGDDMDATYRPMYSSDVPLDPLEMHMDMDGDYPIDTYSDGLRPPYPTADHMLA [JUP],53.5 °C,52.8 °C,-0.169,-0.103,-2.2,-2.86
MAAAAVSESWPELELAERERRRELLLTGPGLEERVRAAGGQLPPRLFTLPLLHYLEVSGCGSLRAPGPGLAQGLPQLHSLVLRRNALGPGLSPELGPLPALRVLDLSGNALEALPPGQGLGPAEPPGLPQLQSLNLSGNRLRELPADLARCAPRLQSLNLTGNCLDSFPAELFRPGALPLLSELAAADNCLRELSPDIAHLASLKTLDLSNNQLSEIPAELADCPKLKEINFRGNKLRDKRLEKMVSGCQTRSILEYLRVGGRGGGKGKGRAEGSEKEESRRKRRERKQRREGGDGEEQDVGDAGRLLLRVLHVSENPVPLTVRVSPEVRDVRPYIVGAVVRGMDLQPGNALKRFLTSQTKLHEDLCEKRTAATLATHELRAVKGPLLYCARPPQDLKIVPLGRKEAKAKELVRQLQLEAEEQRKQKKRQSVSGLHRYLHLLDGNENYPCLVDADGDVISFPPITNSEKTKVKKTTSDLFLEVTSATSLQICKDVMDALILKMAEMKKYTLENKEEGSLSDTEADAVSGQLPDPTTNPSAGKDGPSLLVVEQVRVVDLEGSLKVVYPSKADLATAPPHVTVVR [LRRC47],53 °C,52.2 °C,0.238,0.0172,-0.334,-1.47
MPKRKVSSAEGAAKEEPKRRSARLSAKPPAKVEAKPKKAAAKDKSSDKKVQTKGKRGAKGKQAEVANQETKEDLPAENGETKTEESPASDEAGEKEAKSD [HMGN1],59 °C,56.4 °C,0.0899,1.47,-2.25,-4.73
MALLVRVLRNQTSISQWVPVCSRLIPVSPTQGQGDRALSRTSQWPQMSQSRACGGSEQIPGIDIQLNRKYHTTRKLSTTKDSPQPVEEKVGAFTKIIEAMGFTGPLKYSKWKIKIAALRMYTSCVEKTDFEEFFLRCQMPDTFNSWFLITLLHVWMCLVRMKQEGRSGKYMCRIIVHFMWEDVQQRGRVMGVNPYILKKNMILMTNHFYAAILGYDEGILSDDHGLAAALWRTFFNRKCEDPRHLELLVEYVRKQIQYLDSMNGEDLLLTGEVSWRPLVEKNPQSILKPHSPTYNDEGL [UQCC1],54.2 °C,54.1 °C,-0.367,-0.25,0.338,-0.909
